In publication PMC10897489:

Molecular target: GST-NSP3 1–181 (SARS-CoV-2)
Assay: ITC

His-FXR1 215–360 (from UniProt A0A0F7L1S3 215-360) (domain or fragment)
Kd: 2.3 to 2.9 µM
